# Measured values as given in publication PMC11655674.
# Biological target: T1, 6xHis-CerM (Cereibacter sphaeroides WS8N) (UniProt Q3J1N9)
# T1 sequence: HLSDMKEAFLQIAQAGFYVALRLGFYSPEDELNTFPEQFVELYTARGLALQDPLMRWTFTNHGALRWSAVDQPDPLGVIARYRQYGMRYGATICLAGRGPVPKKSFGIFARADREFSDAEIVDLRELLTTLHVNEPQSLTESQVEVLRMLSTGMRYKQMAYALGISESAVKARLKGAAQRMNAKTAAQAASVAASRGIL
# Assay: EMSA
# Conditions: 10 mM Tris pH 7.5, 1 mM EDTA, 0.1 M KCl, 0.1 mM DTT, 5% glycerol, 0.10 mg/mL BSA, 20 min room temperature; 50 ng DNA, 50-200 ng CerM; 4% native gel in TAE pH 7.
row,Sequence,binding
1,GCGAATTCCGAGAGGGTTCCACGCTTCATCTTCTCATTTCGCTGGGCAGCCGATTGCGGCGCGAGGAGACCGTGCTGCCGTCCCATTCTCAAGTTGCGCAAAAGGTAAGGCGCTGGAAGGCCCGTCTTTTGAGCATCTGGTCAAAAAAATAAGTTATTACATGGGCTTGATGGGTGATCGGCTCAATCCGCGGACAAACCCTGAGGTTGAGGTGAGAGAGACCCGACTCGCGCCCGTTACCGAAAATGTGCAGATGGGAATTCGC (double strand) [15394 regulatory region (249 bp)],binds more weakly
2,CCCGAATATTCGCGACTTGCAAAGTTTCGGCGGCGAATTCGCTGCAAATTGCATTGCAGAATGCAAAAGACCTCAGAGGCGAGTGACGTGTCTCCCGTGCTCCCGAGGGATGATCCACAGCGGCGGACGCCGAACGAACCCAGCTTGTATGAATGGACATATCCAAAAAGACAGGTTTGTTTCAAGACAAG (double strand) [14710 fragment D (191 bp)],binds
3,CAAAAAGACAGGTTTGTTTCAAGACAAGTTTTTCTGGATGGAATTGGACGTCGGGCGGGGTTTTGGCACACAATATGCTTGTTATCCGGGCAGGGACAGCTGGAAGATTTACGGAGACATTTCATGAAACATCCCGTCGACGCCCAC (double strand) [14710 fragment F (147 bp)],no binding
4,CCCGAATATTCGCGACTTGCAAAGTTTCGGCGGCGAATTCGCTGCAAATTGCATTGCAGAATGCAAAAGACCTCAGAGGCGAGTGACGTGTCTCCCGTGCTCCCGAGGGATGATCCACAGCGGCGGACGCCGAACGAACCCAGCTTGTATGAATGGACATATCCAAAAAGACAGGTTTGTTT (double strand) [14710 fragment I (182 bp)],binds
5,GCGAATTCAAGGTCACGATGATCCAGAAATATCGGCAACTTTAGATTGTATTCAGCTTCGCCTATGCGAGAGTAACTCATGATTAACCATTGGGCATCATTGTAGTTAATACCTAGGGTGGCGATGCGGAGCGCGAGTGATGAGAATACTGCTGGTGGAGGATGATCCGACCACGTCCCGCAGCATCGAATTGATGCTGACTCATGCGAACCTGAACGTCTATTGCACCGATCTCGGCGAGGACGGGATCGATCTGGCCAAGCTCTACGATTACGATCTCATCCTGCTGAGCTCGC (double strand) [ctrA control region (281 bp)],no binding
6,CCCGAATATTCGCGACTTGCAAAGTTTCGGCGGCGAATTCGCTGCAAATTGCATTGCAGAATGCAAAAGACCTCAGAGGCGAGTGACGTGTCTCCCGTGCTCCCGAGGGATGATCCACAGCGGCGGACGCCGAACGAACCCAGCTTGTATGAATGGACATATC (double strand) [14710 fragment G (163 bp)],no binding
7,CAGCTTGTATGAATGGACATATCCAAAAAGACAGGTTTGTTTCAAGACAAGTTTTTCTGGATGGAATTGGACGTCGGGCGGGGTTTTGGCACACAATATGCTTGTTATCCGGGCAGGGACAGCTGGAAGATTTACGGAGACATTTCATGAAACATCCCGTCGACGCCCAC (double strand) [14710 fragment B (170 bp)],binds
8,GACATATCCAAAAAGACAGGTTTGTTTCAAGACAAGTTTTTCTGGATGGAATTGGACGTCGGGCGGGGTTTTGGCACACAATATGCTTGTTATCCGGGCAGGGACAGCTGGAAGATTTACGGAGACATTTCATGAAACATCCCGTCGACGCCCAC (double strand) [14710 fragment H (155 bp)],binds
9,GTGGGCGTCGACGGGATGTTTCATGAAATGTCTCCGTAAATCTTCCAGCTGTCCCTGCCCGGATAACAAGCATATTGTGTGCCAAAACCCCGCCCGACGTCCAATTCCATCCAGAAAAACTTGTCTTGA (double strand) [14710 fragment C (129 bp)],no binding
